± gives the standard deviation of the averaged measurements.
Experiments:
[1] = tested on: Saccharomyces cerevisiae; assay: protein stability index of tFT-peptide fusion (C-terminal peptide) (PSI (0-1 scale)); higher = more stable (slower turnover); settings: genetic background: wild type; temperature: 30 C
[2] = tested on: Saccharomyces cerevisiae; assay: as above
Protocol: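 MPS profiling in S. cerevisiae of the tFT-X12 degron library: putative degron peptides plus stable controls, 12 aa, fused to the C-terminus of a sfGFP-mCherry timer. Cells are FACS-sorted into 8 mCherry/sfGFP bins and deep-sequenced. PSI runs from 0 (unstable) to 1 (stable). Backgrounds are wild type, das1Δ and doa10Δ at 30 °C, and wild type, das1Δ, cdc34-1 and cdc53-1 at 37 °C; 2-3 technical replicates each.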

[3] = genetic background: cdc34-1, temperature: 37 C
[4] = genetic background: cdc53-1, temperature: 37 C
[5] = genetic background: das1 deletion, temperature: 30 C
[6] = genetic background: das1 deletion, temperature: 37 C
[7] = genetic background: doa10 deletion, temperature: 30 C
[8] = genetic background: wild type, temperature: 30 C
[9] = genetic background: wild type, temperature: 37 C
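Further: PSI is a weighted mean of sequencing reads over stability bins, variants kept only with over 10 reads, mCherry proximal and sfGFP distal, peptide attached via GGGS linker.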

Sequence | protein stability index [1] | protein stability index [2, 3] | protein stability index [2, 4] | protein stability index [2, 5] | protein stability index [2, 6] | protein stability index [2, 7] | protein stability index [2, 8] | protein stability index [2, 9]
RFQKTRIFRCLC | 0.18 ± 0.028 | 0.455 ± 0.002 | 0.66 ± 0.015 | 0.57 ± 0.022 | 0.6796 ± 0.0058 | 0.0979 ± 0.0052 | 0.117 ± 0.015 | 0.137 ± 0.0058
MALAVRVVWCGA | 0.269 ± 0.014 | 0.179 ± 0.014 | 0.179 ± 0.024 | 0.204 ± 0.034 | 0.328 ± 0.0034 | 0.173 ± 0.0053 | 0.207 ± 0.025 | 0.295 ± 0.0084
GAPIFSSFLLFC | 0.412 ± 0.026 | 0.541 ± 0.054 | 0.652 ± 0.022 | 0.579 ± 0.032 | 0.667 ± 0.012 | 0.332 ± 0.028 | 0.31 ± 0.028 | 0.5425 ± 0.0023
SWLLLVFPLSVC | 0.191 ± 0.016 | 0.0423 ± 0.012 | 0.0634 ± 0.005 | 0.167 ± 0.03 | 0.231 ± 0.0058 | 0.0982 ± 0.0044 | 0.0994 ± 0.021 | 0.113 ± 0.0063
KVRVRTTCWRKL | 0.255 ± 0.019 | 0.617 ± 0.039 | 0.686 ± 0.038 | 0.625 ± 0.015 | 0.7074 ± 0.0013 | 0.134 ± 0.0059 | 0.155 ± 0.014 | 0.347 ± 0.0065
PPRPSPPPHPLP | 0.746 ± 0.059 | 0.658 ± 0.028 | 0.7181 ± 0.0022 | 0.6737 ± 0.003 | 0.727 ± 0.011 | 0.681 ± 0.017 | 0.686 ± 0.01 | 0.6974 ± 0.0035
VFLNVLDNNRLC | 0.464 ± 0.037 | 0.65 ± 0.078 | 0.734 ± 0.011 | 0.662 ± 0.025 | 0.74 ± 0.0031 | 0.323 ± 0.011 | 0.331 ± 0.046 | 0.622 ± 0.028
SCSHYRLICSRL | 0.598 ± 0.25 | 0.9109 ± 0.0012 | 0.92 ± 0.015 | 0.752 ± 0.022 | 0.87 ± 0.012 | 0.6118 ± 0.0026 | 0.579 ± 0.033 | 0.7975 ± 0.0065
PRPISRRTLILS | 0.472 ± 0.062 | 0.642 ± 0.047 | 0.7053 ± 0.0034 | 0.545 ± 0.026 | 0.721 ± 0.0088 | 0.308 ± 0.0098 | 0.354 ± 0.023 | 0.554 ± 0.02
CLGFWVCCYCLV | 0.396 ± 0.029 | 0.537 ± 0.037 | 0.589 ± 0.044 | 0.474 ± 0.006 | 0.592 ± 0.0093 | 0.246 ± 0.0084 | 0.281 ± 0.035 | 0.48 ± 0.017
SKPFPRHIFSLH | 0.503 ± 0.046 | 0.674 ± 0.022 | 0.737 ± 0.027 | 0.663 ± 0.026 | 0.7348 ± 0.0039 | 0.481 ± 0.03 | 0.4981 ± 0.0046 | 0.644 ± 0.012
QTGRVRGFVVSG | 0.701 ± 0.048 | 0.689 ± 0.037 | 0.726 ± 0.024 | 0.632 ± 0.032 | 0.723 ± 0.02 | 0.645 ± 0.021 | 0.65 ± 0.008 | 0.719 ± 0.028
YWIFCYFFWGGV | 0.455 ± 0.037 | 0.392 ± 0.032 | 0.483 ± 0.0098 | 0.358 ± 0.032 | 0.518 ± 0.008 | 0.3153 ± 0.0014 | 0.35 ± 0.015 | 0.501 ± 0.02
GACGLGMLIFIV | 0.411 ± 0.0075 | 0.585 ± 0.04 | 0.618 ± 0.03 | 0.427 ± 0.026 | 0.623 ± 0.015 | 0.256 ± 0.012 | 0.29 ± 0.02 | 0.511 ± 0.017
LVLFVCFSLFMR | 0.309 ± 0.058 | 0.153 ± 0.0065 | 0.166 ± 0.037 | 0.189 ± 0.019 | 0.291 ± 0.012 | 0.219 ± 0.0087 | 0.168 ± 0.022 | 0.2732 ± 0.00043
CSPVNGSAVWSI | 0.699 ± 0.076 | 0.688 ± 0.032 | 0.736 ± 0.016 | 0.668 ± 0.02 | 0.7551 ± 0.00081 | 0.664 ± 0.019 | 0.667 ± 0.017 | 0.7093 ± 0.0046
SCICTSCLVLVL | 0.368 ± 0.049 | 0.5223 ± 0.0033 | 0.509 ± 0.024 | 0.327 ± 0.032 | 0.552 ± 0.002 | 0.298 ± 0.011 | 0.32 ± 0.029 | 0.5334 ± 0.0046
CLLLVISSLCSG | 0.403 ± 0.011 | 0.416 ± 0.047 | 0.462 ± 0.073 | 0.336 ± 0.014 | 0.529 ± 0.023 | 0.261 ± 0.0032 | 0.301 ± 0.0098 | 0.4964 ± 0.0038
LVNSPSISSLWL | 0.586 ± 0.22 | 0.695 ± 0.019 | 0.736 ± 0.034 | 0.688 ± 0.015 | 0.746 ± 0.0087 | 0.6786 ± 0.0038 | 0.691 ± 0.018 | 0.719 ± 0.008
